# Measured values from PMC12491784, “A Circular RNA Promotes Tumor Metastasis through Stabilizing MSI2 Protein in Pancreatic Ductal Adenocarcinoma”.
# Experiments:
# [1] = target: T1, MSI2 (Musashi-2), recombinant (UniProt Q96DH6 1-328); assay: pull-down; EMSA: kit binding buffer (Beyotime GS009), 25 C 1 h, 5% native PAGE; RNA pull-down: 100 pmol biotinylated probe on streptavidin beads, 4 C 4 h; high-stringency; settings: protein: recombinant; tags: GST; label: 5' biotin
# [2] = target: T1, MSI2 (Musashi-2), recombinant; assay: EMSA; EMSA: kit binding buffer (Beyotime GS009), 25 C 1 h, 5% native PAGE; RNA pull-down: 100 pmol biotinylated probe on streptavidin beads, 4 C 4 h; high-stringency; settings: protein: recombinant; tags: GST; label: 5' biotin
# T1 sequence (Q96DH6 whole entry): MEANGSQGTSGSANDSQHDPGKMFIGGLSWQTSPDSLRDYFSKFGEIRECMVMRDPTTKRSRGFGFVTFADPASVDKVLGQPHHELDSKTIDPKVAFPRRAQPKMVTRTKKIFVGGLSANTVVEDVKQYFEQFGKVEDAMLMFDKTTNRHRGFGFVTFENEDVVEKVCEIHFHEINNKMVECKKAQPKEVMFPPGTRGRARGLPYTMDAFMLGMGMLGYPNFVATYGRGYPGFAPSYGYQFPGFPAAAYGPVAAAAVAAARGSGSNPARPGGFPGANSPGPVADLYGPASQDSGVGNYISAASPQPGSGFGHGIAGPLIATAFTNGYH
Binder,binding result [1],binding result [2]
UCCUAUCAAAUAACUAAACCAAAG (ssRNA) [P2-mut RNA probe],no binding,–
UCCUAUCAAAUUAGUAAACCAAAG (ssRNA) [P2 RNA probe],–,binds
GUGUGCUCCAUAGUUUAUCAAAAG (ssRNA) [P1 RNA probe],–,binds
GUGUGCUCCAAACUUUAUCAAAAG (ssRNA) [P1-mut RNA probe],no binding,–
